Measurements from the supplement of paper PMC7877785.
± gives the uncertainty stated by the source.

Test: self-splicing fitness, log relative to wild type (ln ratio); higher = more splicing; Tetrahymena group I intron in knt gene, E. coli kanamycin selection, DiMSum; sequences stand for … in CUCUCU…GGAGGGAAAAGUUAUCAGGCAUGCACCUGGUAGCUAGUCUUUAAACCAAUAGAUUGCAUCGGUUUAAAAGGCAAGACCGUCAAAUUGCGGGAAAGGGGUCAACAGCCGUUCAGUACCAAGUCUCAGGGGAAACUUUGAGAUGGCCUUGCAAAGGGUAUGGUAAUAAGCUGACGGACAUGGUCCUAACCACGCAGCCAAGUCCUAAGUCAACAGAUCUUCUGUUGAUAUGGAUGCAGUUCACAGACUAAAUGUCGGUCGGGGAAGAUGUAUUCUUCUCAUAAGAUAUAGUCGGACCUCUCCUUAAUGGGAGCUAGCGGAUGAAGUGAUGCAACACUGGAGCCGCUGGGAACUAAUUUGUAUGCGAAAGUAUAUUGAUUAGUUUUGGAGUACUCGUGGUCG
Procedure, shortened: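 DiMSum derived fitness as the error-weighted combination of fold changes across replicates, kanamycin versus no kanamycin, normalised to wild type. E. coli BL21(DE3) held the library, which randomised all eight P1ex-region intron nucleotides within the knt kanamycin-resistance gene on pET-22b(+). Six replicate transformations grew overnight at 37°C or 30°C on LB agar with or without 25 μg/mL kanamycin, also containing 100 μg/mL carbenicillin, 50 μM IPTG and 0.2% rhamnose, and pooled colonies were amplicon-sequenced on an Illumina HiSeq 2500.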

| Sequence | self-splicing fitness (ln) (30 °C) | self-splicing fitness (ln) (37 °C) |
| --- | --- | --- |
| GUAUAGCAAUAUUACGUCCU | -1.56 ± 0.15 | -0.00945 ± 0.19 |
| AACCAGCAAUAUUACGUAGU | -1.99 ± 0.06 | -1.42 ± 0.071 |
| GCUUAGCAAUAUUACGGGGA | -1.05 ± 0.11 | -0.712 ± 0.12 |
| CAAGAGCAAUAUUACGAAGC | -3.5 ± 0.23 | -2.86 ± 0.24 |
| CUAUAGCAAUAUUACGAAUC | -2.05 ± 0.36 | -1.9 ± 0.33 |
| UGGGAGCAAUAUUACGGCAU | – | -2.47 ± 0.45 |
| UGAAAGCAAUAUUACGCGUU | -3.19 ± 0.19 | -3.1 ± 0.29 |
| UAAUAGCAAUAUUACGACGA | -1.41 ± 0.13 | -1.15 ± 0.14 |
| CAUUAGCAAUAUUACGUAGG | -0.646 ± 0.08 | -0.199 ± 0.11 |
| UGAGAGCAAUAUUACGGGCA | -0.578 ± 0.12 | -0.806 ± 0.17 |
| AGCUAGCAAUAUUACGCGCG | -0.92 ± 0.18 | -0.121 ± 0.17 |
| AAUUAGCAAUAUUACGUGCG | -0.879 ± 0.12 | -0.209 ± 0.14 |
| AACGAGCAAUAUUACGAUAG | -3.04 ± 0.22 | -2.49 ± 0.22 |
| AAAUAGCAAUAUUACGUUAG | -4.15 ± 0.42 | -3.24 ± 0.3 |
| ACUAAGCAAUAUUACGCGGA | -1.96 ± 0.094 | -0.956 ± 0.083 |
| UUUGAGCAAUAUUACGACUG | -2.39 ± 0.36 | -1.03 ± 0.39 |
| UCGUAGCAAUAUUACGCUAU | -2.37 ± 0.45 | -2.88 ± 0.4 |
| GGGAAGCAAUAUUACGGGCC | -2.03 ± 0.14 | -0.949 ± 0.13 |
| AUCUAGCAAUAUUACGACCG | -0.961 ± 0.39 | -0.253 ± 0.33 |
| AGCCAGCAAUAUUACGGUGC | -2.49 ± 0.12 | -2.28 ± 0.17 |

| Sequence | self-splicing fitness (ln) (30 °C) | self-splicing fitness (ln) (37 °C) |
| --- | --- | --- |
| GUGGAGCAAUAUUACGACAA | -1.83 ± 0.24 | -1.38 ± 0.25 |
| GCUGAGCAAUAUUACGCGCA | -1.72 ± 0.4 | – |
| UAGCAGCAAUAUUACGGUUA | -0.0652 ± 0.056 | -0.181 ± 0.064 |
| CGCGAGCAAUAUUACGAUCG | -2.08 ± 0.11 | -2.66 ± 0.29 |
| GAUUAGCAAUAUUACGGCUG | -0.996 ± 0.067 | -0.513 ± 0.093 |
| UUGCAGCAAUAUUACGGAAU | -2.83 ± 0.3 | – |
| CGCCAGCAAUAUUACGUGGC | -3.72 ± 0.2 | -2.5 ± 0.2 |
| ACACAGCAAUAUUACGCACA | -1.16 ± 0.1 | -0.111 ± 0.1 |
| GCACAGCAAUAUUACGGUCG | -0.697 ± 0.043 | -0.246 ± 0.057 |
| AGCAAGCAAUAUUACGUUUA | -2.1 ± 0.13 | -1.96 ± 0.15 |
| CUGUAGCAAUAUUACGCUGC | -3.17 ± 0.3 | – |
| GGAUAGCAAUAUUACGAUCG | -0.534 ± 0.095 | 0.652 ± 0.14 |
| CCGGAGCAAUAUUACGGUUG | -1.16 ± 0.14 | -1.25 ± 0.16 |
| CGUGAGCAAUAUUACGCACG | -3.19 ± 0.29 | -2.94 ± 0.47 |
| UGCCAGCAAUAUUACGAUUA | -0.904 ± 0.075 | -0.743 ± 0.089 |
| GUUCAGCAAUAUUACGCUGC | – | -1.76 ± 0.4 |
| UUCUAGCAAUAUUACGUUCU | -3.79 ± 0.46 | -1.26 ± 0.18 |
| GAUUAGCAAUAUUACGCUUC | -3.55 ± 0.34 | -1.88 ± 0.29 |
| AACGAGCAAUAUUACGCUCG | -2.55 ± 0.35 | – |
| UUCAAGCAAUAUUACGGUUC | -4.02 ± 0.32 | -2.78 ± 0.48 |
